Data taken from PMC9889267.

Molecular target: MLucV (pTriEx-mTFP1(cp175)-Luciferase-Venus(cp173)), purified reporter protein (firefly) [luciferase: P08659]
Assay: SEC-RALS; UMLucV (urea pre-aggregated MLucV), 1 µM, 300 µl on Superdex-200 increase; similar size profile up to 2,000 nM; oligomer of misfolded protomers

## MLucV (pTriEx-mTFP1(cp175)-Luciferase-Venus(cp173)), purified reporter protein (from UniProt P08659 1-544)
  stoichiometry N: 12
